{"source": "patent US20150152192A1", "about": "(SAMSUNG ELECTRONICS, published 2015)", "key": {"[1]": {"molecular_target": "T1, mouse Ang2 (Accession # NP-031452) (R&D Systems) (mouse, UniProt O35608 19-496, limits assumed)", "T1 construct": "Bought protein; also called mAng2", "T1 sequence (looked up)": "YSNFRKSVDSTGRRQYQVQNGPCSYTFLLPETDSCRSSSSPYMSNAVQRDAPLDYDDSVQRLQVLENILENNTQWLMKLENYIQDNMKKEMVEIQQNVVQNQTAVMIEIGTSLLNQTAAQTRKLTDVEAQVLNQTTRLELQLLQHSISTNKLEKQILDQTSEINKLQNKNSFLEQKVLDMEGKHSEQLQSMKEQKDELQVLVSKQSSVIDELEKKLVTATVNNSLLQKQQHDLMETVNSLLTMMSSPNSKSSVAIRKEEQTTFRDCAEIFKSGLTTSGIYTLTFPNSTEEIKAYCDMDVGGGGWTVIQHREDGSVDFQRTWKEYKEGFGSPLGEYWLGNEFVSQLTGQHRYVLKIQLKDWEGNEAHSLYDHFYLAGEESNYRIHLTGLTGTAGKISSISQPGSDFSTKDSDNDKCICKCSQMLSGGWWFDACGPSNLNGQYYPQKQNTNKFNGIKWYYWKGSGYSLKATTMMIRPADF", "assay": "ELISA, antigen coated, IgG, anti-hFc-HRP; 50% binding concentration (Kd)", "procedure": "To measure binding of the antibodies prepared above with each antigen, ELISA was performed. A 96-well MaxiSorp™ flat-bottom plate (Nunc) was coated with 5˜20 μg/ml of human Ang2 and mouse Ang2 (Accession # NP_{—}031452) (both, R&D Systems). After that, the plate was washed five times with 0.05% (v/v) Tween-20-containing PBS and then blocked with 1% (v/v) BSA-containing PBS at a room temperature for 2 hours. The anti-Ang2 antibodies in their IgG forms prepared above (0.001, 0.01, 0.1, 1, 10, 100, and 1000 nM) were added to each well of the plate which was then allowed to react at a room temperature for 2 hours.\n(§1) Thereafter, the plate was washed five times with 0.05% Tween-20-containing PBS and then, an HRP-conjugated anti-human FC (Anti-hFc-HRP conjugated) antibody (SIGMA) diluted in 1% (v/v) BSA-containing PBS at 1:5,000 ratio (v/v) was added in the amount of 50 μl to each well to react at a room temperature for 1 hour, followed by washing five times with 0.1% (v/v) Tween-20-containing PBS. Finally, 100 μl of TMB substrate (cell signal) was added to each well of the plate to induce color development at a room temperature for 3 min and then, the reaction was ceased by the addition of 50 μl of 5N H₂SO₄ solution and OD450 values were measured on a plate reader (Molecular Devices)."}, "[2]": {"molecular_target": "T2, FLAG-Tagged hAng2 (human, UniProt O15123 19-496, limits assumed)", "T2 construct": "also called FLAG-Ang2; non-mutated Ang2", "T2 sequence": "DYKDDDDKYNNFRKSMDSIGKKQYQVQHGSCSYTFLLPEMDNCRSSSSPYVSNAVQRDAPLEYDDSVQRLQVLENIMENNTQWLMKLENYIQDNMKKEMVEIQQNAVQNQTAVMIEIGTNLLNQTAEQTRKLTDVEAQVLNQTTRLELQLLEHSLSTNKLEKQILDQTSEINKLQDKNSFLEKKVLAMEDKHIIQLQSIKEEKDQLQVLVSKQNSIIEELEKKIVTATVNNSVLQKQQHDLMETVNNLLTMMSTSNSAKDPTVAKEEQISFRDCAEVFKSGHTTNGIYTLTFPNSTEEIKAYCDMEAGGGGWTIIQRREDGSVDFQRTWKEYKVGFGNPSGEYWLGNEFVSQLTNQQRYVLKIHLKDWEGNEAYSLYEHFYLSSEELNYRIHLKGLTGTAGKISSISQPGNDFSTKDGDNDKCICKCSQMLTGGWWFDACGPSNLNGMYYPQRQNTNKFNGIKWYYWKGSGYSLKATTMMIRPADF", "assay": "competitive ELISA: hTie2-Fc coated, 400 ng/ml FLAG-hAng2 plus IgG, anti-FLAG-HRP", "procedure": "To verify molecular interaction of the bound assemblies, a competitive ELISA was performed. A 96-well MaxiSorp™ flat-bottom plate (Nunc) was coated with […] of hTie2-Fc (R&D Systems), which is a protein with the Fc of human IgG1 bound thereto. After that, the plate was washed five times with 0.05% (v/v) Tween-20-containing PBS (Phosphate Buffer Saline) and then blocked with 1% (v/v) BSA (Bovine serum albumin; Sigma)-containing PBS at a room temperature for 2 hours.\nas §1, with “an HRP-conjugated anti-FLAG antibody (SIGMA)” for “an HRP-conjugated anti-human FC (Anti-hFc-HRP conjugated) antibody (SIGMA)”, “amount of 100 μl to” for “amount of 50 μl to”, “for 3 min. Then, the reaction” for “for 3 min and then, the reaction”"}, "[3]": {"molecular_target": "T3, recombinant hAng2 (C-His, R&D Systems) (human, UniProt O15123 19-496)", "T3 construct": "Bought protein captured on an anti-His chip; not shown: C-terminal His tag", "T3 sequence": "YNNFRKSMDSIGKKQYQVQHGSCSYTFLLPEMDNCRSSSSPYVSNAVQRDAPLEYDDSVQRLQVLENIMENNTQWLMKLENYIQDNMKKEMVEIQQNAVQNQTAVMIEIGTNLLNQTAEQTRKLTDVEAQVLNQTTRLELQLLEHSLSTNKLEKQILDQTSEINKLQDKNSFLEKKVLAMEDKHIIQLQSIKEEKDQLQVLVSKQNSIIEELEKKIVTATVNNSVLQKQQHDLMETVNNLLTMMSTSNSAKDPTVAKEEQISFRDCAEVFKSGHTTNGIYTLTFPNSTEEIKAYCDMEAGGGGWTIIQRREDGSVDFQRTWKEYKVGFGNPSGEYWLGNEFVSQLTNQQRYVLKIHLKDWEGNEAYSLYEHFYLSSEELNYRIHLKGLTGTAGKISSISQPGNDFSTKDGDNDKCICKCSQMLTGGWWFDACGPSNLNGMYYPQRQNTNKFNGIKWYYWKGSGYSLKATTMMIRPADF", "assay": "SPR, BIAcore T100, hAng2-His captured on anti-His CM5 chip, antibody flowed", "procedure": "To measure accurate affinities toward an anti-Ang2 antigen, antigen affinities were measured by a SPR method using a BIAcore T100 (GE Healthcare). The SPR method uses refractive index change of light which passes a sensor chip according to the state of materials coated onto the sensor chip, and if an antigen or an antibody is flowed onto a chip coated with the antigen or antibody, it causes changes in refractive index due to their binding and Kd values are thus calculated from the measured values.\nFirst, anti-His antibody was immobilized on a CM5 sensor chip (GE healthcare) up to 8,000 RU levels using a pH 5.0 acetate solution and an amine coupling kit (GE Healthcare). 6 μg/ml of a recombinant hAng2 (C-His, R&D Systems) protein was flowed onto the chip to be captured at 100 to 200 RU levels."}}}
{"binder": "SAIT-ANG-2-AB-4-F11 (IgG form) (antibody, V domains shown, Intact human antibody with human IgG1 constant region) VH: EVQLLESGGGLVQTGGSLRLSCAASGFTFSDYAMSWVRQAPGKGLEWVSSIYPDDGNTYYADSVKGRFTISRDNSKNTLYLQMNSLRAEDTAVYYCAKHPVRLNLHPMYYYYGMDVWGQGTLVTVSS VL: QSVLTQPPSASGTPGQRVTISCTGSSSNIGNNAVSWYQQLPGTAPKLLIYSDSQRPSGVPDRFSGSKSGTSASLAISGLRSEDEADYYCATWDYSLSAYVFGGGTKLTVLG", "values": [{"measurement": "Kd", "setting": "[1]", "result": 0.36, "unit": "nM"}, {"measurement": "IC50", "setting": "[2]", "result": 0.37, "unit": "nM"}, {"measurement": "Kd", "setting": "[3]", "result": 0.44, "unit": "nM"}, {"measurement": "koff", "setting": "[3]", "result": 0.000777, "unit": "s⁻¹"}, {"measurement": "kon", "setting": "[3]", "result": "1.76e+06", "unit": "M⁻¹ s⁻¹"}]}
{"binder": "SAIT-ANG-2-AB-2-E6 (IgG form) (antibody, V domains shown, Intact human antibody: VH cloned into a vector with the constant region and Fc region of human IgG1, VL into pFUSE2-CLIg-hl2 (light chain constant region)) VH: EVQLLESGGGLVQTGGSLRLSCAASGFTFSDYAMSWVRQAPGKGLEWVSAIYPDSGNKYYADSVKGRFTISRDNSKNTLYLQMNSLRAEDTAVYYCARHSSDPKVKSGYYDDGMDVWGQGTLVAVSS VL: QSVLTQPPSASGTPGQRVTISCSGSSSNIGNNAVNWYQQLPGTAPKLLIYADSNRPSGVPDRFSGSKSGTSASLAISGLRSEDEADYYCGSWDYSLSGYVFGGGTKLTVLG", "values": [{"measurement": "Kd", "setting": "[1]", "result": 0.35, "unit": "nM"}, {"measurement": "IC50", "setting": "[2]", "result": 0.605, "unit": "nM"}, {"measurement": "Kd", "setting": "[3]", "result": 0.65, "unit": "nM"}, {"measurement": "koff", "setting": "[3]", "result": 0.000795, "unit": "s⁻¹"}, {"measurement": "kon", "setting": "[3]", "result": "1.22e+06", "unit": "M⁻¹ s⁻¹"}]}
{"binder": "SAIT-ANG-2-AB-8-A5 (IgG form) (antibody, V domains shown, Intact human antibody with human IgG1 constant region) VH: EVQLLESGGGLVQPGGSLRLSCAASGFTFSDYYMSWVRQAPGKGLEWVSGIYPSGGSTYYADSVKGRFTISRDNSKNTLYLQMNSLRAEDTAVYYCARDPSTLTYAGFDYWGQGTLVTVSS VL: QSVLTQPPSASGTPGQRVTISCSGSSSNIGNNYVTWYQQLPGTAPKLLIYADSHRPSGVPDRFSGSKSGTSASLAISGLRSEDEADYYCATWDYSLSGYVFGGGTKLTVLG", "values": [{"measurement": "Kd", "setting": "[1]", "result": 0.19, "unit": "nM"}, {"measurement": "IC50", "setting": "[2]", "result": 0.341, "unit": "nM"}, {"measurement": "Kd", "setting": "[3]", "result": 0.074, "unit": "nM"}, {"measurement": "koff", "setting": "[3]", "result": 0.000327, "unit": "s⁻¹"}, {"measurement": "kon", "setting": "[3]", "result": "4.4e+06", "unit": "M⁻¹ s⁻¹"}]}
{"binder": "SAIT-ANG-2-AB-3-D3 (IgG form) (antibody, V domains shown, Intact human antibody with human IgG1 constant region) VH: EVQLLESGGGLVQPGGSLRLSCAASGFTFSDYDMSWVRQAPGKGLEWVSGISSDDGNTYYADSVKGRFTISRDNSKNTLYLQMNSLRAEDTAVYYCARPTIDKYTLRGYYSYGMDVWGQGTLVTVSS VL: QSVLTQPPSASGTPGQRVTISCTGSSSNIGSNYVSWYQQLPGTAPKLLIYSDNKRPSGVPDRFSGSKSGTSASLAISGLRSEDEADYYCGTWDDSLNGYVFGGGTKLTVLG", "values": [{"measurement": "Kd", "setting": "[1]", "result": 0.3, "unit": "nM"}, {"measurement": "IC50", "setting": "[2]", "result": 0.44, "unit": "nM"}, {"measurement": "Kd", "setting": "[3]", "result": 0.47, "unit": "nM"}, {"measurement": "koff", "setting": "[3]", "result": 0.000546, "unit": "s⁻¹"}, {"measurement": "kon", "setting": "[3]", "result": "1.16e+06", "unit": "M⁻¹ s⁻¹"}]}
{"binder": "SAIT-ANG-2-AB-4-C11 (IgG form) (antibody, V domains shown, Intact human antibody with human IgG1 constant region) VH: EVQLLESGGGLVQPGGSLRLSCAASGFTFSDYAMSWVRQAPGKGLEWVSSIYPDDGNTYYADSVKGRFTISRDNSKNTLYLQMNSLRAEDTAVYYCARHTSHHTSIDGYYYYGMDGWGQGTLVTVSS VL: QSVLTQPPSASGTPGQRVTISCTGSSSNIGNNDVSWYQQLPGTAPKLLIYSDSKRPSGVPDRFSGSKSGTSASLAISGLRSEDEADYYCGSWDYSLSGYVFGGGTKLTVLG", "values": [{"measurement": "Kd", "setting": "[1]", "result": 0.28, "unit": "nM"}, {"measurement": "IC50", "setting": "[2]", "result": 0.421, "unit": "nM"}, {"measurement": "Kd", "setting": "[3]", "result": 0.588, "unit": "nM"}, {"measurement": "koff", "setting": "[3]", "result": 0.00049, "unit": "s⁻¹"}, {"measurement": "kon", "setting": "[3]", "result": 833000, "unit": "M⁻¹ s⁻¹"}]}
{"binder": "SAIT-ANG-2-AB-7-C9 (IgG form) (antibody, V domains shown, Intact human antibody with human IgG1 constant region) VH: EVQLLESGGGLVQPGGSLRLSCAASGFTFSNYAMSWVRQAPGKGLEWVSAISSGGGNIYYADSVKGRFTISRDNSKNTLYLQMNSLRAEDTAVYYCAKSGIQPSPPSMSSAYAMDVWGQGTLVTVSS VL: QSVLTQPPSASGTPGQRVTISCSGSSSNIGNNDVYWYQQLPGTAPKLLIYANSHRPSGVPDRFSGSKSGTSASLAISGLRSEDEADYYCGTWDYSLSGYVFGGGTKLTVLG", "values": [{"measurement": "IC50", "setting": "[2]", "result": 0.392, "unit": "nM"}, {"measurement": "Kd", "setting": "[3]", "result": 0.205, "unit": "nM"}, {"measurement": "koff", "setting": "[3]", "result": 0.000366, "unit": "s⁻¹"}, {"measurement": "kon", "setting": "[3]", "result": "1.78e+06", "unit": "M⁻¹ s⁻¹"}]}
{"binder": "SAIT-ANG-2-AB-4-F5 (IgG form) (antibody, V domains shown, Intact human antibody with human IgG1 constant region) VH: EVQLLESGGGLVQPGGSLRLSCAASGFTFSDYDMSWVRQAPGKGLEWVSSISHGDSNKYYADSVKGRFTISRDNSKNTLYLQMNSLRAEDTAVYYCAKSSGIQESPPTYYYYGMDVWGQGTLVTVSS VL: QSVLTQPPSASGTPGQRVTISCSGSSSNIGSNAVNWYQQLPGTAPKLLIYADSNRPSGVPDRFSGSKSGTSASLAISGLRSEDEADYYCGSWDYSLSGYVFGGGTKLTVLG", "values": [{"measurement": "IC50", "setting": "[2]", "result": 1.52, "unit": "nM"}, {"measurement": "Kd", "setting": "[3]", "result": 0.589, "unit": "nM"}, {"measurement": "koff", "setting": "[3]", "result": 0.00112, "unit": "s⁻¹"}, {"measurement": "kon", "setting": "[3]", "result": "1.9e+06", "unit": "M⁻¹ s⁻¹"}]}
